# Experimental data taken from the domain aggregation screens of Martell et al. (2025).
# Experiment: soluble fraction after stress (log2 fold change); higher = more stays soluble; pooled small domains, quantitative proteomics
# Details: stress: pH 4
# Outline: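 Values are on a log2 scale, where higher means more of the domain stayed soluble after pH 4 stress. They are fold changes in the soluble amount of each domain from pooled custom libraries, measured by high-throughput quantitative proteomics. The fold change is taken to reflect aggregation propensity.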
row,Sequence,soluble fraction (log2)
1,HMRVGISRNSGAAGIAVWLTQKLGRPVAKTEEIVHILKNWVDDQYEAGRVTNIGDGELWSVYKQMEAEE,0.0584
2,HMRRISLEDWQLIESLIRRDWSPEQISLWLKKYKKIRVSHEWIYQYILKDKSKAGDLHTHLRSR,-0.419
3,HMISINVIGEMISGSYGNTPFSRTYEKDIYEQMVKLSDDADQAQTVEEYNKILAEFSLLTTEDLK,-1.73
4,HMTGSAETRGITLTDEQVTVWAKDGSWANYVYRATDGNWYDGSGRLYYENGGGEWTQAATGEQGS,-1.68
5,HMGDAPLITVDKRTIKVNGAKAQIQVYDTTGRLVKNVSPAGKLTLIEMAKPGIFIVHTQSMSFKVVL,0.00664
6,HMAIDWVQIKAEYISGTMSASKLAEKHGVSVYAIRKRSGKERWQELRRQNQSETANKIAEKI,-0.0638
7,HMATVIDVATTLGRPITDPDEQRQVLNWIGKTERIISARLGDLAALDRQILADVISEVVARRARN,-0.726
8,HMKKILLGDVNLDGKVDVNDVTLLQRYIAGETEVITSKDALTATNFNKDGNIDVLDVTDIQTFIANSE,0.00934
9,HMREPIPVPSRPIRAGDLVEIPGTNRPAEVTAVKGDRLVLKAGVLSMTVKNDEVRLIEDDERAAM,0.208
10,HMQITAPVQKIDGVEYYMHKVEQGQTLYSISKLYNVGVKEIQKANQLGTEGIQLGQVLKVRKGG,0.00111
11,HMNTLSPVRILAILDGRSSMAEWQLAEELGVSIDNLSEILNKMSTDGQIRLVPSEDGRMVVP,-0.0347
12,HMSSKFKIVGEILSIKKSDILYIIEILSNNEVVKATAVEDEIKDLKIGDKILLSSKAFNPIVNK,-1.09
13,HMNTEEKILEKEFLMLYSELGLQPKNIYELMENTGLKYEKLVEMLLQLQLKGLVEQPSYNYYSRL,-2.46
14,HMSAAPVGPWALSEFLDAVEKDSVERVTFDDAGKALVAVDADGGRHRVEILPSEGPEILAALRKHSVQFA,-0.346
15,HMRHLSVPNRQVEGALDHIRSQGWLAEGMRVFASEDGSARLIPLGPGAPLEMLEPLAKFDVISHEGKPY,-0.771
16,HMKIGIYPGTFDPITHGHTDIIRRSLRVFDKVVVAVAPNPSKHPLFTLTERLEMIRIVMKELEHVEVT,0.117
17,HMIVPPAIPFRALGIFGPRDRPIVTFEDGPRLINAREGDVLDGRFILRRVGRESVDFAFVGLPPEITRRIP,-0.608
18,HMFLPFFDNLRKAGVPVSLREFLGFLEGMKAGLATYDIDAFYFLARTTMVKDERNLDKFDRAFSATFKG,-0.935
19,HMNQKKFIQADYEDRLFDHLAFEVKDMEKIISMMRREKFTITDEPFRLSPTGSLIAFVEDPDRTLIELIER,-0.522
20,HMSFGWETLEGKEGVTDTDLHPSGWVKVGDEKIFVVSQGEFLGKGTDIVVVSVDGNRVVVKELI,-1.11
21,HMFFMTMGEKIQLLRKKQNWSQETLAEKLSVSRQAVSLWERDESQPELDKLLKLAKIFSVTTDYLIDDSVT,-0.0472
22,HMHQVHKIDGVKYYLHLVEKGNTLYGISKQYNVSVERIEKANTEALSDGLKENQTLLIPVTSDNKKT,0.0091
23,HMEMKHKNSQIFQAIKLKHMGFTPTQISEELRVSRTTINHWLTKAQLKDVKWEDIRENSADELVKLLFG,-0.322
24,HMSLSDADVERLLEVAIDIESLEEREGLYYQANESEPYSGWGKLMYDSGQVERLVPYKDGRWEGLWTIW,-1.18
25,HMAEQVLHQKLAARRKELNSLVAQVARVRGIPHSHVHSGLRREAGGPPLAQATTDQVEARISLARKWLRA,-0.000969
26,HMDMQMPIMNGLEFLERINLTLDDNFSIIVLTGKIEDKSIEKSFELGINAYLRKPFNIYALLGIVRQN,-0.102
27,HMTIYLSENIKRLRLEKELTQETLSEFLGVTSQSVSNWERGESYPDITMLPEIADFFKVSVDELLGVNRAE,-1.66
28,HMEYKKKIGELLIDGNKKLKAANIDTYILDTQLLLGKVLGKDKLYLITNKDEEVSNFKEREFYSLIEKRI,-0.304

row,Sequence,soluble fraction (log2)
1,HMVPISGADFEKLSDYILQKAGAGSIQVKELLAGLKGMHEKNLWKAIDYLLAEEKIRIDKGGNISVK,-0.249
2,HMTSDADSLRDKTGYVAEQVTSKGGKVNLYDGGFDSLYSARSTGETISTGTEIRVVDPGGGNMLVVEPV,-0.356
3,HMQINLSEWVLAAREYAGPEMTQEKLAEHLGRTKANVSAMENGRSKPSFEQMMEIHRVTGYPLPYQ,-0.0156
4,HMIKKLDIEPIIKSVVDDFNNIYKLKRGITISYLNDGKNKYFINGIENRIEQIIANLLDNSISFSEDNKDV,0.122
5,HMAIMISINAKGEVAWNDQIISLDDLAQRFNAAGQQAQKPTVQLRADKESRYDMVAQVMSRASEAGLSDIA,-0.966
6,HMGRTVKGVNFVGLRDAGDPVDLAEIYSKEGADELVFLDITATHEKRKTLLDLVTRVAERINIPFTVGGGI,-0.331
7,HMRVTEIDYGAFMKMIEEKNIGEVKVEDYEIVFTDKDNKNIYKTGIMDDPDLTQRLYNSGAVFA,-1.22
8,HMRQHHMIISTKLGTPKEELAKLVSGFEDQGLRVSVITGTDYTVIGLVGDTTHLDEKRIRANPYVDNVQRV,0.0502
9,HMGNTLAYSEFRQKVQEGAVKQVVLSEDRVTGELTNGDRFTANIVRDPELLKMLNDNNVKYDGKPT,-0.0484
10,HMKMDGESQRLLSLIKEQGGSLPIGDKSSPEAIYRLTQMSKKTFKMALGSLYKAKQVVLSPTEVRL,0.0519
11,HMDQDLGFLINKYFELGKDYNTLVEIYEKIKEYIASIDKKMLEYTKNFTIEQLKKWLDDGTINNIILTLG,-0.382
12,HMRDDAIQQGREIVERELHRLDLAYTTLTDVLAKLEYEKLDDLYAAVGFGIRSPHSVAAAALQVERDKA,-1.19
13,HMSINIDEEKKILGPNADQIIKGITTWGQGLVSKGIWSDADFEEFKIFAATGNGINALNKVRKYY,-0.65
14,HMQISGIHLYERRITKDDEWAERKLSEISLAGSLVILILRNEHVVIPNGETVLKENDLLYISD,-1.38
15,HMSMHVHTPNPDFKPSNTNALQEGQLVEHPKFGFGKVQKIETEGLNKKASIQFEHFGEKTLLLSFAKLRII,-0.167
16,HMAPAYELTEEETKIIEILKANENIDLNELKSQAALSGKKWDKSMKNLAKYNLTKVTVDGDAKTVAYLA,-0.516
17,HMKLNETIAEARKRKGLTQEQLAQKLYVTRQAVSRWERGEVVPGIDMLKLIAITLEEPIVHLL,-0.679
18,HMHFEWNELRKAINDFLAEQNMNEDKQLGPYFIQRDIVVPETGTEIDSKKFSEVFKHKVIMYLFDDAAKQ,-0.441
19,HMNKQEFLNTLRIIFKKANVLDVESIIDVYEEHFAVGYEKGLNDEQIIKSLGTPKEIYTSYVEAGI,-1.16
20,HMKDMWNRIRRARLSAGLSQAALAKETGVRRSAVTQWEKEGGTSPSVANLARIAVVTQVHFEWLATGRGPG,-0.216
21,HMLQQKESAALGERLLNQALATLKVEPDAISWDRWEALAKEYGAKSQLDILADIGLGKRLSFVVAQALTKV,-0.698
22,HMIDNFFTIRFNYSKINEVIRLLKEFNGEIFNKNYDKNEYIIEFSIPKKDAALLISKLKNITGLTIEQ,-0.538
23,HMRMNASERQNQIVDLLSQNGVMKIMDIADHFNVSRETIRRDLIILEDDNRIKKWFGGVISAN,-0.219
24,HMSDKPIFIDTAGIAALSAIGFSKYQATIIFNYIKKGGAIYTVKDLAKIYSIDQKTIDLTQSKIIFS,0.22
25,HMNTISYTELIKQIDEGNVEKVEMTVGSTSVKVKLQGQEEEKKAIVPNTQAFVELIQEKTLEGNQIDLKQN,0.0768
26,HMQNLISSDEAKNIALQHANLTDNQVTFIKVSKDYDDGIHIYEVEFHYNNREYNYDINAINGTILSYEQ,-0.173
27,HMPTMEQTYIGRTMIAEEDMGKNSKIKVSGIYWTAYNKGRVIKKGEEYKITGIEGNKLIVSSK,0.179
